Assay results as given in the DeepSol protein solubility set.

Test: soluble on expression in E. coli; label from the status in PepcDB or PDB records

| Sequence | soluble on expression in E. coli |
| --- | --- |
| MAVTQTRDAVIIGGGHNGLVCAFYLAKAGLKVTVCEARGVVGGAAVTEEFHPGFRNSVASYTVSLLNPRVIADMGLRELGLTFLERPISNFLPISDDKYIKLGGGLERTQEEFRKYSRRDAEVLPAYYAMLDEIGDILRDLAQETPPNLGDGLPGLLRALRQGGRLAFLSRQRKRDLLDLFTKSARDVLDGWFESEPVKAAFGFDAVVGNFASPDTPGSAYVLLHHTFGEVNGKKGAWGHAVGGMGAITQAMAKACEAAGVEILLDAPVEAVHIDGGKAAGVQLVDGRQIMAPIVSANVNPALLYKKLVPPSALTPDFRKAVDGYKNGSGTFRMNVALSELPSFTCLPGKETAEHHQSGIVIAPSLDYMDAAYRDAKGQGISKAPIVEMLIPSSLDTSLAPPGQHVASLFCQQFAPELPDGRSWDDAREAAADLIIDTVDQWAPGFKASVLGRMILSPLDLERKFGLIGGDIMHGHMSLDQLWATRPLLGHASHRAPIAGLYMCGAGTHPGGGVSGNPGRNAAREILRDKDFATAVKLSVVGRLEHHHHHH | not soluble |
| MAHHHHHHMTDEKKEEWIRRPYTRSIPVKLRSLAQLEESTVDATTQWYELLEQLVTETDVKGILQQTTKRKAARKLEELASQLRAVMQEMTAQSGRVVREGVDTQSFEQFCAWAGSTPSLQTTEASNGCTQMDKLCARVCMLCLCVAVILNDLELLICGMSFAESHKLLETYSRECEQRSVRQSNSIPDSGMEKGKNSEDVVLCSTVAHTLICGNDHNTFVPLADGDVLLACTLLYYLYTQDGPSASKSVMILERVLHCAEEVGYTSDVLDETGGYRIDFFYTISRMANWVETDNCPRLYQRIAHGFHGGSEVLVPFPPFVFLFTQVMLHMVVRRRLVEMQLQNVWRPVVTMDAAPVGCDGTAAETCSHVHPTVSSTSLCSAHGSKFFAVCLMLQRDCLSQYRSWPLPMELQKSFFC | not soluble |
| MVASSINEESSLAVNLTSDVEKASKTLFKAFEKSYANDYLMKKFFHIPITEKVSRARINAMIHYYTTCYHDLDGEIAEANDFDAVAIWSRPGCHLPATLSDDESFNKIFFSRLDCEEARSHASGNGLLLPLCHRKRS | not soluble |
| MVLLGRGLLAVGRVAFRRPMIVRHLQYDAFVDRHIGPRRLEQQQMLDFIGYKDLDDLTGTNVPNMIKAEKALELPAPLDEYKMLKELEAIAAQNKIYRSYIGMGYYDTIVPAVISRNILQNIGWISQYTPYQAEISQGRLESLLNFQTMIAEMTGLPTTNASLLDEATASAEAVALAARTTKRNKIVVDSFCHPQNLDVIRTRSGPLGIDIEVSDSIEGYAFDDKVAAVVVQYPNTEGRIHQFDELIESAHKNKSLVIMVCDLLSLTILRSPGDLGADIAVGSAQRFGVPLGYGGPHAGFMAVAKHDAKNALGRNIPGRIIGVTKDANGNRALRLALQTREQHIRRDKATSNICTAQALLANMSAMYAVYHGPQRLTEIARGVHKSTAYLAYHLRNAGHEIVHKDYFDTLKIRLKDKAALEETKKRAEEMKMNFRYYEDGDIGVSLDETVKSEDLMDIIYTLNGATEKDVTKLREERWEVACPLIGNSPHSRSSLFLQHPVFNTHQSEQQLVRYMKRLENKDVSLVHSMIPLGSCTMKLNASAELIPITWPTLSSIHPFAPVEQAKGYSRIFGDLEKWLCEITGYDNFSLQPNSGANGEYAGLLAIRNYLIHKGEEQRNICLIPTSAHGTNPASAQMANMKVVVVDSDHHGNINYKDLAAKAEKYSNQLAAIMVTYPSTHGVFESSIRDVCDKVHEHGGQVYLDGANMNAQVGLCRPGDYGSDVSHLNLHKTFCIPHGGGGPGVGPIGVKKHLAPFLPGHSVVPVDGRKVGSVASAPYGSASILAITWAYIRMMGPVGLREASQVAILNANYMAKRLENDYRIVYKDEQGLVAHEFIMDCKPFKKHGIEVVDIAKRLMDYGFHSPTMSWPVHDCLMIEPTESEDKAEMDRLVEALLSIREEIRQVENGSLDKHLNPLKMAPHTLEKVTSDNWNMPYSRELAAFPKPWCTHKAWPTVGRVDDQYGDRNLVCTCPPIESYQ | not soluble |
| AIAVFWGKPLASPRESPRAPGENGKRALHFCAVDEDFVRLFYSFFKSLVGKDVVVELKNDLSICGTLHSVDQYLNIKLTDISVTDPEKYPHMLSVKNCFIRGSVVRYVQLPADEVDTQLLQDAARKEALQQKQ | soluble |
| SAEAEGLADWMSKLNETFTTVPLCYIAIPGSHDAMAYSLDMDSPLLEPDSLITMDLICCGCCRSIVKNWSITQDKTISEQLDAGMRYFDLRVAGKPGSSDFFFYHGLYTTITVKEAMEEVDTWLGKHSKEVVILAFSHFKEMSTEQHTKLMTFLKDHFKAKLCPDDGMPSLKDCWDKAYQVILSYDDRNRKQDRVLWPGIKYWWANNSDPNEAILFLDNKKQSGRPKGFFVAGLNLTFYGCSIFSNLTASLKEKTVTAYPLLLDWVKKQRPGSDTQSINIIAGDFFDVNSFAQDIIQLNDAKTN | soluble |
| MQKIDEKLQLMNTIAKIYRGSIKEFNNRLGKLMNLSYLDFSILKATSEEPRSMVYLANRYFVTQSAITAAVDKLEAKGLVRRIRDSKDRRIVIVEITPKGRQVLLEANEVLRNLVNEMLSDVENVEELLEGLNKILSRIGSSKD | soluble |
| GEDKKGGTKPSNEAALTKTENLDFRLSFNKIKVTTDQNHFSGGTSIEQLKQWFGDPNKSEQRNAGNITLDSYTWVKDGAVINAQLYKNSTVARSISNFSFSREAKIGKEDYDELKIGESYKKIVEKLGEPDVLSQSMSSDKEEMQTVWSSGIKTKSSSATIELYFENGLLKNKTQKDLE | soluble |
| MGSDKIHHHHHHMSDSAKQPELWLMGLGCEEERSTAVLDYLRHAGYSVVCRGRDDFGDTKPLGVVLDVSPFSHDGWGILLDIKNNPATRDVPILPVYLSQEGKIGGVFPAAGFFTLPIDTDYMMKKLTVLGLTDEADTWDLQVMVISKKGEESVAKAITSLGFEVVNAYTGKEAVALATTGRAYMIFCSVTLPDMHSFELLERFRLYPQVRNVPFFVLVKDAMKEGERLALSRQMDHLVRKKELSRDEFLAYLRRRG | not soluble |
| MTIAQEPTALNFECETGNYHTFCPISCVAWLYQKIEDSFFLVIGTKTCGYFLQNAMGVMIFAEPRYAMAELEEGDISAQLNDYAELKRLCEQIKRDRNPSVIVWIGTCTTEIIKMDLEGLAPKLEGEIGIPIVVARANGLDYAFTQGEDTVLAAMAHRCPDKAPVAELEHHHHHH | not soluble |
| MGSDKIHHHHHHMTSELETAANPEKLKRIVIEPVTRVEGHGKVTLLLDEDNRVQQARFHIVEFRGFEKFIQGRPYTEVPVLVQRLCGICPVSHNLAASKAMDVIVGAAPPPAADKLRRLMHMGQMLQSHALHFFHLSSPDLLFGFDAEVGKRNIAGLAMQFPDIARQGVGLRKFGQEVIRMTSGKRVHGTGVIPGGMSKNLSREDRDWLLAEIDQVVRWSQQAVNLIKRLYGEHKDFYNNFGYYRSSFMSLVREDGAMDLYHGNLRAIDDKGQTIFDHVDYSHYGDYIHEEVKSWSYMKFPFIRSQGREEGWYRVGPLARVNNCDFIPTPLAEAERKIFKEYDGGRASHATLSFHWARMIEMLHSAEAIRELLHDDDLLSDDLVNIGERQLRGVGVIEAPRGTLIHHYRINEDEQIVRANLIVATTHNNQAMNEAIRQVSLQYLDGQQLTEGLLNYIEVAIRAFDPCLSCATHALGKMPLEVELVDAEGARVKRIIKDSDGGYRA | not soluble |
| SDHVDLPYNLTATKIDSDVFVVTDRDFYSSNVLVAKMLDGTVVIVSSPFENLGTQTLMDWVAKTMKPKKVVAINTHFHLDGTGGNEIYKKMGAETWSSDLTKQLRLEENKKDRIKAAEFYKNEDLKRRILSSHPVPADNVFDLKQGKVFSFSNELVEVSFPGPAHSPDNVVVYFPKKKLLFGGCMIKPKELGYLGDANVKAWPDSARRLKKFDAKIVIPGHGEWGGPEMVNKTIKVAEKAVGEMRL | soluble |
| MSVSGLKAELKFLASIFDKNHERFRIVSWKLDELHCQFLVPQQGSPHSLPPPLTLHCNITESYPSSSPIWFVDSEDPNLTSVLERLEDTKNNNLLRQQLKWLICELCSLYNLPKHLDVEMLDQPLPTGQNGTTEEVTSEEEEEEEEMAEDIEDLDHYEMKEEEPISGKKSEDEGIEKENLAILEKIRKTQRQDHLNGAVSGSVQASDRLMKELRDIYRSQSYKTGIYSVELINDSLYDWHVKLQKVDPDSPLHSDLQILKEKEGIEYILLNFSFKDNFPFDPPFVRVVLPVLSGGYVLGGGALCMELLTKQGWSSAYSIESVIMQINATLVKGKARVQFGANKNQYNLARAQQSYNSIVQIHEKNGWYTPPKEDG | soluble |
